Test results published in the supplement of paper PMC9170038.

Tested on: MS2 coat protein
Assay: apparent KD of MS2 coat protein; designed switch direction (-1 OFF switch, 1 ON switch): 1; higher = weaker reporter binding
How it was run: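 Three titration conditions were used: no input, 200 uM small-molecule ligand, and an oligonucleotide input. In each, SNAP-549-labelled MS2 coat protein was raised from 0.7 or 1.5 nM, doubling, to 3 µM over designed RNA switches transcribed on Illumina chips by stalled E. coli RNA polymerase. Curve fits of normalised cluster fluorescence gave values whose per-design median over clusters is the apparent KD.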

[1] = input ligand: microRNA oligo, concentration not stated
[2] = Eterna round: R95, input ligand: FMN 200 uM
[3] = Eterna round: R95, input ligand: microRNA oligo, concentration not stated
[4] = Eterna round: R95, input ligand: none

Sequence | apparent KD of MS2 coat protein (input ligand: FMN 200 uM) [nM] | apparent KD of MS2 coat protein [1] [nM] | apparent KD of MS2 coat protein (input ligand: none) [nM] | apparent KD of MS2 coat protein [2] [nM] | apparent KD of MS2 coat protein [3] [nM] | apparent KD of MS2 coat protein [4] [nM]
GGAAAGAGGUAAGGAUAUGCAUGGCGGAGACAUGAGGAUCACCCAUGUUGGAGACGAAAUCUAGGGUAGAAGGUACAAGGAAGG [AK SSNG2-V2-11] (Eterna round: R96, puzzle: Same State NG 2) | 133 | 44.6 | 128 |  |  | 
GGAAAGAGGUAAGGAUAUGCAUGGCUGGGACAUGAGGAUCACCCAUGUUAUAGAAGAAAUCUAGGGUAGAAGGUACAAGGAAGG [AK SSNG2-V2-9.1] (Eterna round: R96, puzzle: Same State NG 2) | 464 | 199 | 455 |  |  | 
GGAAAGAGGUCAGGAUAUGAAUGUUUGGGACAUGAGGAUCACCCAUGUAAUAGAAGAAAUCUACAUUAGAAGGGACAAGGAAGG [AK SSNG2-V2-6] (Eterna round: R96, puzzle: Same State NG 2) | 63.5 | 54.5 | 79.3 |  |  | 
GGAAGGAGGUCAGGAUAUGAAUGGAAAGUACAUGAGGAUCACCCAUGUUAUGGAGGAAGGAAACGUUAGAAGGGAUAAGGAAGG [AK SSNG2-V2-2] (Eterna round: R96, puzzle: Same State NG 2) | 32 | 26.8 | 41.5 |  |  | 
GGAAUAUGAUGUUACAUGAGGAUCACCCAUGUAGUGAUAACUAAGGAUAUCUGUUAAGAUAAUUAAGAGAAGGUAGGAUCAUAA [AK SSNG3-V2-8.2] (Eterna round: R96, puzzle: Same State NG 3) | 34.7 | 37.5 | 42.4 |  |  | 
GGAAUAUUUACAGGAUAUGAUUUGUUAAGUCGAUCAGAAGGGUGGAUGUCUUACACGGUUUGUUACAUGAGGAUCACCCAUGUC [SameState NG1 #14] (Eterna round: R96, puzzle: Same State NG 1) | 73.3 | 74 | 176 |  |  | 
GGAAUAUUUACAGGAUAUGUUUUGUUAAGUCGAGCAGAAGGGUAGAUGUCUUACACGGUUUGUUACAUGAGGAUCACCCAUGUU [SameState NG1 #17] (Eterna round: R96, puzzle: Same State NG 1) |  | 86.6 |  |  |  | 
GGACGAGACGCAGGAUAUGCGAAGAAGAAGGAAGCAGAAGGGCGUGUGGGACGACAUGAGGAUCACCCAUGUUCUCUGCGAGGA [ssng1 b] (Eterna round: R96, puzzle: Same State NG 1) | 363 | 116 | 331 |  |  | 
GGACGGUUAUCAGGAUAUGCGCUGAGCAUCACGGCUACAUGAGGAUCACCCAUGUCUAGCUUCUCGCAGAAGGGAUAGCCUCCU [Eternabot solution 36] (Eterna round: R96, puzzle: Same State NG 2) | 11.2 | 10.1 | 15 |  |  | 
GGACGUCACUCAAACAAUUAAACAUGAGGAUCACCCAUGUCACAGGAUAUGGAUCCUAAUUGGAUCCAGAAGGGUGAGACGUCC [Fiskers NG3ss - 41] (Eterna round: R96, puzzle: Same State NG 3) |  | 193 |  |  |  | 
GGAGAGAAGUGAGGAUAUGCAUGGAAGACACAUGAGGAUCACCCAUGUGGGAGGGAAACCGGGAGGUAGAAGGCACUGGGAAGA [AK SSNG2-V2-25] (Eterna round: R96, puzzle: Same State NG 2) | 83.7 | 24.1 | 107 |  |  | 
GGAGAGAGAGCACAGGAUAUGAGAGGAGAGACAUGAGGAUCACCCAUGUAAGAGAGAGAGGAGAGUUAGAAGGGUGAGAGAGAGG [Altered State 2-20 - Jieux - Same State 2] (puzzle: Same State 2) |  |  |  | 54.7 | 43 | 102
GGAGCAGGGUGAGGAUAUGUAAAAUUCGAAAGGACAGAAGGCACUUAACCAACAUGAGGAUCACCCAUGUAGGCGACGGCACCA [Eternabot solution 8] (Eterna round: R96, puzzle: Same State NG 1) |  | 19.9 |  |  |  | 
GGAGCCAGCACCGAGGAUAUUCAUAUUAAAACAUGAGGAUCACCCAUGUAGGCCAGAAGGCCUUGGGAGAAGGCGGAUUGGCUCG [Xeonanis - 10] (puzzle: Same State 2) |  |  |  | 35.3 | 327 | 496
GGAGCCGACACUGAGGAUAUUCAUAUUAAAACAUGAGGAUCACCCAUGUAGGCCAGAAGGCCUUGGGAGAAGGCAGGCCGGCUCG [Inxebi] (Eterna round: R96, puzzle: Same State 2) | 21.9 | 166 | 287 |  |  | 
GGAGCCGACACUGAGGAUAUUCAUAUUAAAACAUGAGGAUCACCCAUGUAGGCCAGAAGGCCUUGGGAGAAGGCAGGUCGGCCCG [Bibimoar - 2] (puzzle: Same State 2) |  |  |  | 15.9 | 331 | 294

Sequence | apparent KD of MS2 coat protein (input ligand: FMN 200 uM) [nM] | apparent KD of MS2 coat protein [1] [nM] | apparent KD of MS2 coat protein (input ligand: none) [nM] | apparent KD of MS2 coat protein [2] [nM] | apparent KD of MS2 coat protein [3] [nM] | apparent KD of MS2 coat protein [4] [nM]
GGAGCCGGCACCGAGGAUAUUCAUAUUAAAACAUGAGGAUCACCCAUGUAGCUCGAAAGAGCUUGGGAGAAGGCGGAUCGGCUCG [Xeonanis - 29] (Eterna round: R96, puzzle: Same State 2) | 37.3 | 322 | 633 |  |  | 
GGAGCCGGCACCGAGGAUAUUCAUAUUAAAACAUGAGGAUCACCCAUGUAGCUCGAAAGAGCUUGGGAGAAGGCGGAUCGGCUCG [Xeonanis - 29] (puzzle: Same State 2) |  |  |  | 30.5 | 1010 | 827
GGAGCCGGCCUAGGAUAUUUCAUAAGAAAACAUGAGGAUCACCCAUGUAGGCCAGAAGGCCUUGGGAAGAAGGAGGUCGGCUCC [Loop Effect - G26] (Eterna round: R96, puzzle: Same State NG 2) | 11.2 | 19.7 | 35.1 |  |  | 
GGAGCCGGCCUAGGAUAUUUCAUAAUAUUACAUGAGGAUCACCCAUGUAGGCCAGAAGGCCUUGGGAAGAAGGAGGUCGGCUCC [Loop Effect - U26,U28,U29] (Eterna round: R96, puzzle: Same State NG 2) |  | 30.7 |  |  |  | 
GGAGCCGGCCUAGGAUAUUUCAUUUAAAAACAUGAGGAUCACCCAUGUAGGCCAGAAGGCCUUGGGAAGAAGGAGGUCGGCUCC [Loop Effect - U24,U25] (Eterna round: R96, puzzle: Same State NG 2) | 11.2 | 22.7 | 44.2 |  |  | 
GGAGCCGGUACUGAGGAUAUUCAUAUUAAAACAUGAGGAUCACCCAUGUAGGCCAGAAGGCCUUGGGAGAAGGCAGACCAGCUCG [Atgexeedri] (Eterna round: R96, puzzle: Same State 2) | 18 | 190 | 271 |  |  | 
GGAGCCUGCACUGAGGAUAUUCAUAGUGUAACAUGAGGAUCACCCAUGUAGGCCCUGAGGCCUUGGGAGAAGGCAGUGCGGCUCG [JL-ss2-3.05 ViennaUCT mod] (puzzle: Same State 2) |  |  |  | 27.9 | 355 | 447
GGAGGACAUGAGGAUCACCCAUGUAGAUGGGCGCUAGGAUAUGCGAGAGGGUAGAGAGAAGCAGAAGGAGUGGAAA [JR_SS1_Sub040] (puzzle: Same State 1) |  |  |  | 149 | 197 | 382
GGAGGACAUGAGGAUCACCCAUGUGGAUGGGCGCUAGGAUAUGCGAGAGGAUGGAGAGAAGCAGAAGGAGUGGGUU [JR_SS1_Sub042] (puzzle: Same State 1) |  |  |  |  | 79.6 | 
GGAUAACAUGAGGAUCACCCAUGUCAACAAAGUCGAGGAUAUGGGCAAUUAUAAUUAGAACCAGAAGGCGAAUAGG [Mat - Same State 1 - Mod of UCT - D44] (puzzle: Same State 1) |  |  |  | 55.9 | 126 | 191
GGAUGAUAGACAGGAUAUUGAUUGUAAUUAGGUCAAGAAGGGUCUUUGAUUUAAACGACCAGUUACAUGAGGAUCACCCAUGUU [JR_SSNG1_Sub028] (Eterna round: R96, puzzle: Same State NG 1) | 82.5 | 65.9 | 201 |  |  | 
GGAUGAUUAACAGGAUAUCAUUUGUAAAUUGGUUGAGAAGGGUUAAUGAUUUACACGACCUGUUACAUGAGGAUCACCCAUGUU [SameState NG1 #2] (Eterna round: R96, puzzle: Same State NG 1) | 41 | 33.8 | 47.2 |  |  | 
GGAUGAUUGACAGGAUAUCAUUUGUAAAUUCGAUGAGAAGGGUCGAUUACUUACACGACGUGUUACAUGAGGAUCACCCAUGUU [SameState NG1 #5] (Eterna round: R96, puzzle: Same State NG 1) | 53.7 | 116 | 148 |  |  | 
GGCCAGAGUCAAGGAUAUGCUACCGUUUCGGUAGCAGAAGGUGAUCACAUGAGGAUCACCCAUGUUUACUGGGAGACCAUGGCC [JL SSNG1 3.69] (Eterna round: R96, puzzle: Same State NG 1) | 219 | 136 | 112 |  |  | 
GGCCUGAGUCAAGGAUAUGCUACCGUUUCGGUAGCAGAAGGUGAUCACAUGAGGAUCACCCAUGUUUACGGGAAGACCCGCGCC (Eterna round: R96, puzzle: Same State NG 1) | 1470 | 141 | 489 |  |  | 
